Consider 64 sequences from publication PMC4434323.

Data set [1] addresses pag-3 (F45B8.4) (Caenorhabditis elegans) (UniProt G5EDE1).
For data set [2], the target named is T1, lsy-27 (F47H4.1) (Caenorhabditis elegans) (UniProt O45526).
T1 sequence: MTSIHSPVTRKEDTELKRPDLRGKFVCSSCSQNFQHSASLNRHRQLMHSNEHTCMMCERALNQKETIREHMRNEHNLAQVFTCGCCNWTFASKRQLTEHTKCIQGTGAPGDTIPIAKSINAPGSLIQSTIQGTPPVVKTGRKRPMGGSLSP

Data set [3] addresses T2, ztf-29 (Y66D12A.12) (Caenorhabditis elegans) (UniProt Q95Q03).
T2 sequence: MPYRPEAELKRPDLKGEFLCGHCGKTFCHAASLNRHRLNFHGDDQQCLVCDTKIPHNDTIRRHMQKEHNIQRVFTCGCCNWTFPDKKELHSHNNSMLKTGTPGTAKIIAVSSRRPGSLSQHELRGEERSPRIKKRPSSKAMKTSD

The target of data set [4] is T3, ham-2 (C07A12.1) (Caenorhabditis elegans) (UniProt H2KYH4).
T3 sequence: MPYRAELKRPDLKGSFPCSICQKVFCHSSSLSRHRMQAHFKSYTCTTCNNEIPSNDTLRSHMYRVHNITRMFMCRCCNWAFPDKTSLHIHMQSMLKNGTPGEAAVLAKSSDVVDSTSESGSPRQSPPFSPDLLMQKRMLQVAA

For data set [5], the target named is T4, F52B5.7 (F52B5.7) (Caenorhabditis elegans) (UniProt Q7YWZ7).
T4 sequence: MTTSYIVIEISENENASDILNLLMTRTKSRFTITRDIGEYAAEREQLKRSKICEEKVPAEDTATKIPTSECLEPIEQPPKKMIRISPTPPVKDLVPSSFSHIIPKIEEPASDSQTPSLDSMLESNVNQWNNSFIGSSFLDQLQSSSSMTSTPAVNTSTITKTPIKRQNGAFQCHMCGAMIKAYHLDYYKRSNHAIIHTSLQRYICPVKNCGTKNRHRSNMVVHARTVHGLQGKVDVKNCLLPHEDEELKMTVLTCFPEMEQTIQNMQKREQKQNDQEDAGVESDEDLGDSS

For data set [6], the target named is T5, Y44A6D.3 (Y44A6D.3) (Caenorhabditis elegans) (UniProt Q9XXE0).
T5 sequence: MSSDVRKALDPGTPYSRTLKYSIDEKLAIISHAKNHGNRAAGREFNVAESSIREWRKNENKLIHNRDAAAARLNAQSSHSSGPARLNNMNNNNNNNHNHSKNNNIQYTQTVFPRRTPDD

Data set [7] concerns the target lin-48 (F34D10.5) (Caenorhabditis elegans) (UniProt G5EDU6).
In data set [8] the target is T6, che-1 (C55B7.12) (Caenorhabditis elegans) (UniProt Q966L8).
T6 sequence: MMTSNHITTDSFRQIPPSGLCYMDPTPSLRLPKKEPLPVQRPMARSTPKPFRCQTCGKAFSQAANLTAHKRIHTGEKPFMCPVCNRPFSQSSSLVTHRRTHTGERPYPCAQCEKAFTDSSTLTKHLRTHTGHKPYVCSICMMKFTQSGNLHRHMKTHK

lin-48 (F34D10.5) (Caenorhabditis elegans), sequence (G5EDU6 83-280): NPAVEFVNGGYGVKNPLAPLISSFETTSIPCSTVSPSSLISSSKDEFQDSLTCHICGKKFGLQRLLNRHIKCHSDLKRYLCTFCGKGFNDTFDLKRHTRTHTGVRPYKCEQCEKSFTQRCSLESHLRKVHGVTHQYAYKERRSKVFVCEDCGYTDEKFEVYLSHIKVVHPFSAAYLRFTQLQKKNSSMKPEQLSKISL
pag-3 (F45B8.4) (Caenorhabditis elegans), sequence (G5EDE1 76-311): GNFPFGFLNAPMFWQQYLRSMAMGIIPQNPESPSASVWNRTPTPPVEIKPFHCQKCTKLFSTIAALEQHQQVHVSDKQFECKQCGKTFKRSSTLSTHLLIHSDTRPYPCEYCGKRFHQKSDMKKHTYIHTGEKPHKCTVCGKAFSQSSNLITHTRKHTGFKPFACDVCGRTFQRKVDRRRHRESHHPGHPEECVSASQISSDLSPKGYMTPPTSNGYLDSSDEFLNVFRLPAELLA

“AAAATCTG (double strand) [8-mer AAAATCTG]” displayed a binding signal (PBM E-score (-0.5 to 0.5)) in data set [1] of 0.491.
Turning to “AAAGCTTC (double strand) [8-mer AAAGCTTC]”, the binding signal (PBM E-score (-0.5 to 0.5)) in data set [2] worked out at 0.492; in data set [3], 0.486.
In the case of “AAAGCTTT (double strand) [8-mer AAAGCTTT]”, the binding signal (PBM E-score (-0.5 to 0.5)) was determined as 0.491 in data set [2], 0.496 in data set [3] and 0.478 in data set [4].
For the sequence “AAATCACA (double strand) [8-mer AAATCACA]”, the binding signal (PBM E-score (-0.5 to 0.5)) in data set [1] was determined as 0.49.
Sequence “AAATCACG (double strand) [8-mer AAATCACG]” returned a binding signal (PBM E-score (-0.5 to 0.5)) in data set [1] of 0.492.
The same measure, in the same setting: then “AAATCTCA (double strand) [8-mer AAATCTCA]”, with 0.487; and “AAATCTGA (double strand) [8-mer AAATCTGA]”, with 0.486; and “AAATCTGG (double strand) [8-mer AAATCTGG]”, with 0.493.
The same measure, in the same setting: the result for “AAATCTGT (double strand) [8-mer AAATCTGT]” reads 0.49.
Consider “AAGCTTAA (double strand) [8-mer AAGCTTAA]”, for which the results for the binding signal (PBM E-score (-0.5 to 0.5)) in data set [2], in data set [3] and in data set [4] were 0.493, 0.494 and 0.493, respectively.
Take “AAGCTTCA (double strand) [8-mer AAGCTTCA]”: the binding signal (PBM E-score (-0.5 to 0.5)) was 0.497 in data set [2] and 0.489 in data set [3].
Turning to “AAGCTTCT (double strand) [8-mer AAGCTTCT]”, the binding signal (PBM E-score (-0.5 to 0.5)) in data set [2] was 0.496; in data set [3], 0.49.
“AAGCTTTA (double strand) [8-mer AAGCTTTA]”: the binding signal (PBM E-score (-0.5 to 0.5)) in data set [2] worked out at 0.49; in data set [3] it was 0.494; in data set [4], 0.482.
“AATCACAG (double strand) [8-mer AATCACAG]”: the binding signal (PBM E-score (-0.5 to 0.5)) in data set [1] was determined as 0.491.
On the same count and under the same terms, the result for “AATCACTG (double strand) [8-mer AATCACTG]” reads 0.49; that for “AATCAGTG (double strand) [8-mer AATCAGTG]”, 0.491; that for “AATCTCAG (double strand) [8-mer AATCTCAG]”, 0.49.
On the same count and under the same terms, then “AATCTGTG (double strand) [8-mer AATCTGTG]”, with 0.487.
On to “ACCCATGG (double strand) [8-mer ACCCATGG]”, for which, in data set [5], the binding signal (PBM E-score (-0.5 to 0.5)) stood at 0.485.
In data set [5], “ACCCCATA (double strand) [8-mer ACCCCATA]” registered a binding signal (PBM E-score (-0.5 to 0.5)) of 0.496.
On to “ACCCCATG (double strand) [8-mer ACCCCATG]”, for which the binding signal (PBM E-score (-0.5 to 0.5)) in data set [5] was determined as 0.486.
For “ACCGCGCA (double strand) [8-mer ACCGCGCA]”, the binding signal (PBM E-score (-0.5 to 0.5)) in data set [6] is 0.495.
Still for that read-out and setting: then “ACTGCGCA (double strand) [8-mer ACTGCGCA]”, with 0.498.
“AGCTTCAC (double strand) [8-mer AGCTTCAC]”: the binding signal (PBM E-score (-0.5 to 0.5)) in data set [2] worked out at 0.493.
“AGCTTCAG (double strand) [8-mer AGCTTCAG]” yielded a binding signal (PBM E-score (-0.5 to 0.5)) in data set [2] of 0.491.
The same measure, in the same setting: the result for “AGCTTCAT (double strand) [8-mer AGCTTCAT]” reads 0.494; that for “AGCTTCTG (double strand) [8-mer AGCTTCTG]”, 0.491.
Take “ATGCGCAG (double strand) [8-mer ATGCGCAG]”: the binding signal (PBM E-score (-0.5 to 0.5)) in data set [6] amounted to 0.493.
As to “ATGCGCGG (double strand) [8-mer ATGCGCGG]”, the binding signal (PBM E-score (-0.5 to 0.5)) in data set [6] was determined as 0.494.
Take “ATGGATAC (double strand) [8-mer ATGGATAC]”: the binding signal (PBM E-score (-0.5 to 0.5)) in data set [5] came to 0.485.
On the same count and under the same terms, then “ATGGGGTA (double strand) [8-mer ATGGGGTA]”, with 0.488; and “ATGGGTAC (double strand) [8-mer ATGGGTAC]”, with 0.488.
For “CAAATCAC (double strand) [8-mer CAAATCAC]”, the binding signal (PBM E-score (-0.5 to 0.5)) in data set [1] was 0.487.
The sequence “CAAATCTG (double strand) [8-mer CAAATCTG]” showed a binding signal (PBM E-score (-0.5 to 0.5)) in data set [1] of 0.489.
Sequence “CAGATTTA (double strand) [8-mer CAGATTTA]” gave a binding signal (PBM E-score (-0.5 to 0.5)) in data set [1] of 0.489.
In data set [5], “CCATGGGG (double strand) [8-mer CCATGGGG]” returned a binding signal (PBM E-score (-0.5 to 0.5)) of 0.482.
Still for that read-out and setting: then “CCCATGGG (double strand) [8-mer CCCATGGG]”, with 0.485; and “CCCCATAA (double strand) [8-mer CCCCATAA]”, with 0.495; and “CCCCATAG (double strand) [8-mer CCCCATAG]”, with 0.492.
Same read-out and setting: then “CCCCATGA (double strand) [8-mer CCCCATGA]”, with 0.495.
“CCCCCATA (double strand) [8-mer CCCCCATA]” showed a binding signal (PBM E-score (-0.5 to 0.5)) in data set [5] of 0.485.
For the sequence “CCGCGCAC (double strand) [8-mer CCGCGCAC]”, the binding signal (PBM E-score (-0.5 to 0.5)) in data set [6] was determined as 0.496.
“CCGCGCAG (double strand) [8-mer CCGCGCAG]” had a binding signal (PBM E-score (-0.5 to 0.5)) in data set [6] of 0.495.
Consider “CCGTTATC (double strand) [8-mer CCGTTATC]”, for which the binding signal (PBM E-score (-0.5 to 0.5)) in data set [7] amounted to 0.49.
Sequence “CCTGCGCA (double strand) [8-mer CCTGCGCA]” came in with a binding signal (PBM E-score (-0.5 to 0.5)) in data set [6] of 0.493.
Regarding “CTGCGCAA (double strand) [8-mer CTGCGCAA]”, the binding signal (PBM E-score (-0.5 to 0.5)) in data set [6] is 0.495.
Regarding “CTGCGCAG (double strand) [8-mer CTGCGCAG]”, the binding signal (PBM E-score (-0.5 to 0.5)) in data set [6] stood at 0.496.
“GAAGCTTA (double strand) [8-mer GAAGCTTA]”: the binding signal (PBM E-score (-0.5 to 0.5)) in data set [2] came out at 0.493; in data set [3], 0.485; in data set [4], 0.482.
Regarding “GAAGCTTC (double strand) [8-mer GAAGCTTC]”, the binding signal (PBM E-score (-0.5 to 0.5)) in data set [2] is 0.496; in data set [3] it was 0.494.
As to “GACCGTTA (double strand) [8-mer GACCGTTA]”, the binding signal (PBM E-score (-0.5 to 0.5)) in data set [7] came out at 0.496.
As for “GCCCCATA (double strand) [8-mer GCCCCATA]”, the binding signal (PBM E-score (-0.5 to 0.5)) in data set [5] was 0.487.
The sequence “GCCGCGCA (double strand) [8-mer GCCGCGCA]” yielded a binding signal (PBM E-score (-0.5 to 0.5)) in data set [6] of 0.494.
Same read-out and setting: the result for “GCTGCGCA (double strand) [8-mer GCTGCGCA]” reads 0.494.
As to “GCTTAAGC (double strand) [8-mer GCTTAAGC]”, the results for the binding signal (PBM E-score (-0.5 to 0.5)) in data set [2], in data set [3] and in data set [4] were 0.494, 0.491 and 0.493, respectively.
Consider “GCTTCACC (double strand) [8-mer GCTTCACC]”, for which, in data set [2], the binding signal (PBM E-score (-0.5 to 0.5)) was 0.491.
As for “GGCTTCAC (double strand) [8-mer GGCTTCAC]”, the binding signal (PBM E-score (-0.5 to 0.5)) stood at 0.49 in data set [2] and 0.492 in data set [8].
Consider “GGTGCGCA (double strand) [8-mer GGTGCGCA]”, for which, in data set [6], the binding signal (PBM E-score (-0.5 to 0.5)) was determined as 0.493.
The sequence “GTAACGGA (double strand) [8-mer GTAACGGA]” returned a binding signal (PBM E-score (-0.5 to 0.5)) in data set [7] of 0.485.
In turn, “GTACCATA (double strand) [8-mer GTACCATA]” gave a binding signal (PBM E-score (-0.5 to 0.5)) in data set [5] of 0.487.
For “GTCCGTTA (double strand) [8-mer GTCCGTTA]”, the binding signal (PBM E-score (-0.5 to 0.5)) in data set [7] was determined as 0.487.
For the sequence “TAACGGGA (double strand) [8-mer TAACGGGA]”, the binding signal (PBM E-score (-0.5 to 0.5)) in data set [7] was 0.49.
Still for that read-out and setting: then “TAACGGTA (double strand) [8-mer TAACGGTA]”, with 0.494.
As to “TACCCATA (double strand) [8-mer TACCCATA]”, in data set [5], the binding signal (PBM E-score (-0.5 to 0.5)) was 0.485.
As for “TCCGCGCA (double strand) [8-mer TCCGCGCA]”, the binding signal (PBM E-score (-0.5 to 0.5)) in data set [6] came out at 0.495.
